Assay results from patent publication US6528312B1, “Use of G-actin for improving transfection of a polynucleotide into a cell” (Transgene S.A., priority 1998, dated 2003).

Legend:
[1] = system: tibialis anterior muscles of mdx mice; assay: Intramuscular transfer of dystrophin plasmid pTG11025, dystrophin immunohistochemistry; format: in vivo, mouse; details: pTG11025 i.m. with adjuvant (IL-10 0.1 μg, DMSO 10% final, G-actin 10 μg), notexin 3 days before, 7 days after injection; mean +/- sem
Procedure: (§1) Plasmids are prepared according to Bischoff et al. (Analytical Biochemistry 254 (1997), 69-81). The tested interleukin-10s were mixed with the plasmid preparation (pTG11033: CMV promoter, β-globin intron, luciferase cassette; pTG11025: CMV promoter, β-globin intron, dystrophin cassette; both diluted in 0.9% NaCl), prior to intramuscular injection. 25 μg of plasmid are injected per muscle in 5 to 10 week-old C57BI/10 or mdx mice. The 2 tibialis anterior (right and left) muscles were injected (each muscle was considered as a sample, which means number of samples per condition=2×number of mice per condition).
(§2) One week after injection of the composition, mice were killed and the tibialis anterior muscles were retrieved and frozen. Based on the injected vector, either luciferase activity was determined in muscle extracts, or dystrophin expression was evaluated by immunohistochemistry.
Muscle samples were frozen in liquid nitrogen-cooled isopentane and stored at −80° C. […]
In a second experiment mdx mice were 3 times injected intramuscularly with pTG11025 (dystrophin) plus DMSO, G-actin and IL-10 after notexin-induced muscle regeneration. Plasmid-adjuvant injections were repeated 3 times in raw on a daily basis and dystrophin expression (immunohistochemistry) was evaluated 7 days after the last injection. […]

[2] = system: tibialis anterior muscles of C57BL/10 mice; assay: Intramuscular transfection of luciferase plasmid pTG11033, luciferase activity of injected muscles; format: in vivo, mouse; details: IL-10 0.01 and 0.1 μg + 25 μg pTG11033 per muscle, dose-dependent
Procedure: as §1, §2
Luciferase activity was quantified using a conventional measurement kit (Luciferase Assay System, Promega). […] Luciferase activity was expressed as number of RLU emitted per minute.
Proteins were measured on 10 μl samples using a VCA Protein Assay Kit (Pierce). […]
One week after injection of the vectors, the mice were killed and the tibialis anterior muscles were retrieved and frozen. Luciferase activity was determined on muscle extracts. […]

Row | Molecule | Number of dystrophin-positive fibers per cryosection [1] | increase of luciferase expression [2] [factor]
1 | C[S+](C)[O-] [DMSO, dimethylsulfoxide] | 37.8 +/− 5.5 | 
2 | IL-10: human recombinant IL-10 (Sigma) (protein, UniProt P22301 19-178, looked up) Interleukin-10: SPGQGTQSENSCTHFPGNLPNMLRDLRDAFSRVKTFFQMKDQLDNLLLKESLLEDFKGYLGCQALSEMIQFYLEEVMPQAENQDPDIKAHVNSLGENLKTLRLRLRRCHRFLPCENKSKAVEQVKNAFNKLQEKGIYKAMSEFDIFINYIEAYMTMKIRN | 21.7 +/− 1.9 | 3
